Assay results from patent US20210032343A1.

Tests used:
PD-1 (human) = PD-1 (human) (UniProt Q15116); experiment: competition ELISA; blocking PD-1/PD-L2
HER2 (human) = HER2 (human) (UniProt P04626); experiment: ELISA

PD-1 (human), sequence (Q15116 25-167): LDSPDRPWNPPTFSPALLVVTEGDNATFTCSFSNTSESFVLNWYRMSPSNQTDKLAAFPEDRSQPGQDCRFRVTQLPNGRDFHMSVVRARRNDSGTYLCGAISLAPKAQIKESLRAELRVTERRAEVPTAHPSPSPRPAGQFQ

HER2
IC50 (PD-1 (human)): > 20 nM
EC50 (HER2 (human)): 0.12 nM
